Source: the RNAGym collection of RNA variant scans (doi:10.7554/elife.80360)

B1: Hairpin Ribozyme (parent)
chain: GUCCUCUUUCACGUGCGCGUGAAAGAGAGAAGUGAACCAGAGAAACACACGUUGUGGUAUAUUACCUGGUA

Variants of: B1
Experiment: self-cleavage, relative activity (ratio to wild type); higher = more cleavage; co-transcriptional

First: GUCCUCUUUCACAUGCGCGUGAAAGAGAGAAGUGAACCAGAGAAAAACACGUUGUGGUAUAUUACCUGGUA
Second: GUCCUCUUUCACAUGCGCGUGAAAGAGAGAAGUGAACCAGAGAAAGACACGUUGUGGUAUAUUACCUGGUA
The self-cleavage of the first is higher: 0.124 for the first, 0.0618 for the second.

Going from GUCCUCUUUCAUGUGCGCGUGAAAGAGAGAAGUGAACCAGAGAAACACACGUUGUGGUAUAGUACCUGGUA to GUCCUCUUUCACCUGCGCGUGAAAGGGAGAAGUGAACCAGAGAAACACACGUUGUGGUAUAUUACCUGGUA, the self-cleavage rises from 0.235 to 0.492.

Going from GUCCUCUUUCACAUGCGCGUGAAAGAGAGAAGUGAACCAGAGAAACACACGUUGUGGUAUAUUAACUGGUA to GUCCUCUUUCACAUGCGCGUGAAAGAGAGAAGUGAACCAGAGAAACACACGUUGUGGUACAUUACCUGGUA, the self-cleavage rises from 0.743 to 1.25.

Going from GUCCUCUUUCACAUGCGCGUGAAAGAGAGAAGUGAACCAGAGAAACACACGUUGUGAUAUAUUACCUGGUA to GUCCUCUUUCACAUGCGCGUGAAAGAGAGAAGUGAACCAGAGAAACACACGUUGUGCUAUAUUACCUGGUA, the self-cleavage falls from 0.175 to 0.164.

Compared with GUCCUCUUUCACAUGCGCGUGAAAGAGAUAAGUGAACCAGAGAAACACACGUUGUGGUAUAUUACCUGGUA, GUCCUCUUUCACAUGCGCGUGAAAGAGAGAAGUGCACCAGAGAAACACACGUUGUGGUAUAUUACCUGGUA is higher in self-cleavage: 0.116 for the first, 0.739 for the second.

Compared with GUCCUCUUUCACAUGCGCGUGAAAGAGAGAAGUGAACCAGAGAAACACACGUUGUGGUAUAUUACCUGGUU, GUCCUCUUUCACCUGCGCGUGAAAGAGAGAAGUGAUCCAGAGAAACACACGUUGUGGUAUAUUACCUGGUA is lower in self-cleavage: 0.746 for the first, 0.4 for the second.

Going from GUCCUCUUUCACCUGCGCGUGAAAGAGAGAAGUGAGCCAGAGAAACACACGUUGUGGUAUAUUACCUGGUA to GUCCUCUUUCACAUGAGCGUGAAAGAGAGAAGUGAACCAGAGAAACACACGUUGUGGUAUAUUACCUGGUA, the self-cleavage rises from 0.816 to 0.82.

First: GUCCUCUUUCACAUGGGCGUGAAAGAGAGAAGUGAACCAGAGAAACACACGUUGUGGUAUAUUACCUGGUA
Second: GUCCUCUUUCACAUGUGCGUGAAAGAGAGAAGUGAACCAGAGAAACACACGUUGUGGUAUAUUACCUGGUA
The self-cleavage of the first is lower: 0.593 for the first, 1.03 for the second.

Going from GUCCUCUUUCAUGUGCGCGUGAAAGAGAGAAGUGAACCAGAGAAACACACGUUGUGGCAUAUUACCUGGUA to GUCCUCUUUCAUGUGCGCGUGAAAGAGAGAAGUGAACCAGAGAAACACACGUUGUGGUAUAUUACCUGUUA, the self-cleavage falls from 1 to 0.153.

Compared with GUCCUCUUUCAUGUGCGCGUGAAAGAGAGAAGUGAACCAGAGAAACACACGUUGUGGUAUAUUACCUGCUA, GUCCUCUUUCAUGUGCGCGUGAAAGAGAGAAGUGAACCAGAGAAACACACGUUGUGGUAUAUUACCUGAUA is higher in self-cleavage: 0.367 for the first, 0.406 for the second.

Going from GUCCUCUUUCACAUGCGCGUGAAAGAGAGAAGUGAACCAGAGAAACACACGCUGUGGUAUAUUACCUGGUA to GUCCUCUUUCACAUGCGCGUGAAAGAGAGAAGUGAACCAGAGAAACACACGGUGUGGUAUAUUACCUGGUA, the self-cleavage falls from 0.625 to 0.5.

First: GUCCUCUUUCACAUGCGCGUGAAAGAGAGAAGUGAACCAGAGAAACACACGAUGUGGUAUAUUACCUGGUA
Second: GUCCUCUUUCACAUGCGCGUGAAAAAGAGAAGUGAACCAGAGAAACACACGUUGUGGUAUAUUACCUGGUA
The self-cleavage of the first is higher: 1.01 for the first, 0.484 for the second.

Going from GUCCUCUUUCAUGUGCGCGUGAAAGAGAGAAGUGAACCAGAGAAACACACGUUGUGGUAAAUUACCUGGUA to GUCCUCUUUCAUGUGCGCGUGAAAGAGAGAAGUGAACCAGAGAAACACACGUUGUGGUAUAUAACCUGGUA, the self-cleavage falls from 0.766 to 0.249.

Compared with GUCCUCUUUCACAUGCGCGUGAAAGAGAGAAGUGAACCAGAGGAACACACGUUGUGGUAUAUUACCUGGUA, GUCCUCUUUCACAUGCGGGUGAAAGAGAGAAGUGAACCAGAGAAACACACGUUGUGGUAUAUUACCUGGUA is higher in self-cleavage: 0.0659 for the first, 0.761 for the second.

Going from GUCCUCUUUCACAUGCGUGUGAAAGAGAGAAGUGAACCAGAGAAACACACGUUGUGGUAUAUUACCUGGUA to GUCCUCUUUCAUGUGCGCGUGAAAGAGAGAAGUGAACCAGAGAAACACACGUUGCGGUAUAUUACCUGGUA, the self-cleavage falls from 1.1 to 0.218.

First: GUCCUCUUUCAUGUGCGCGUGAAAGAGAGAAGUGAACCAGAGAAACACACGUUGGGGUAUAUUACCUGGUA
Second: GUCCUCUUUCACAUGCGCGUGAAAGAGAGAAGUGAACCAGAGAAACACACGUUGUGGUAUAUUACCAGGUA
The self-cleavage of the first is lower: 0.181 for the first, 0.27 for the second.

Going from GUCCUCUUUCACAUGCGCGUGAAAGAGAGAAGUGAACCAGAGAAACACACGUUGUGGUAUAUUACCCGGUA to GUCCUCUUUCAUGUGCGCGAGAAAGAGAGAAGUGAACCAGAGAAACACACGUUGUGGUAUAUUACCUGGUA, the self-cleavage rises from 0.27 to 0.695.

Compared with GUCCUCUUUCAUGUGCGCGCGAAAGAGAGAAGUGAACCAGAGAAACACACGUUGUGGUAUAUUACCUGGUA, GUCCUCUUUCAUGCGCGCGUGAAAGAGAGAAGUGAACCAGAGAAACACACGUUGUGGUAUAUUACCUGGUA is higher in self-cleavage: 0.894 for the first, 1.05 for the second.

Going from GUCCUCUUUCACAAGCGCGUGAAAGAGAGAAGUGAACCAGAGAAACACACGUUGUGGUAUAUUACCUGGUA to GUCCUCUUUCACAGGCGCGUGAAAGAGAGAAGUGAACCAGAGAAACACACGUUGUGGUAUAUUACCUGGUA, the self-cleavage falls from 0.99 to 0.538.
